{"source": "patent CN115703834A", "about": "(BOAOXIN BIOTECHNOLOGY NANJING CO LTD, dated 2023)", "binders": {"B1": {"name": "抗人CD47单克隆抗体1A5 (antibody, V domains shown)", "VH": "EVQLQQSGAELVRSGASVTLSCTASGFNIKDYYMNWVKQRPEQGLEWIGWIGPENGDTENDPRFQGKATMTADTSSNTAFLQLSSLTSEDTAFYYCNAGGRGGFPYWGQGTLVTVST", "VL": "DILLTQTPLSLPVSLGDQASFSCRSSQNIVHINGKTYLEWYLQKPGQSPKLLIYRVSNRFSGVPDRFSGSGSGTDFTLKISRVEAEDLGVYYCFQGSHVPRTFGGGTKLEIK", "notes": "also called 本发明的单克隆抗体1A5; 本发明的抗体1A5"}}, "key": {"[1]": {"target": "T1, 人CD47 (表面过表达人CD47的293F细胞) (human, UniProt Q08722 19-323)", "T1 construct": "whole, on cells; also called 表面过表达人CD47的稳定细胞系293F", "T1 sequence (Q08722 19-323)": "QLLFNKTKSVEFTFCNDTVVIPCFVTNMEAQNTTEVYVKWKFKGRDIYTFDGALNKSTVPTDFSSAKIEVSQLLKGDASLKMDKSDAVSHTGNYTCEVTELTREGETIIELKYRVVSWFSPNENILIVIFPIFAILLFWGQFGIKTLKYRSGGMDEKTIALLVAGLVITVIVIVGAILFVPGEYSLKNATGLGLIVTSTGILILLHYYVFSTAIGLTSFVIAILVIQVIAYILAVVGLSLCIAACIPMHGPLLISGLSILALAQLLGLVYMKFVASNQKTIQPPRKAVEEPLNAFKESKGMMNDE", "assay": "flow cytometry on 293F cells overexpressing human CD47"}, "[2]": {"target": "T2, 重组人CD47-his蛋白 (ACRO biosystems, cat#CD7-H5227, MW 15.6 kDa) (human, UniProt Q08722 19-139, biotin-labelled in the ELISA assays (sites not given); unlabelled in Biacore)", "T2 construct": "Bought protein; The same catalogue number is used unlabelled (SPR) and biotin-labelled (ELISAs); also called 人CD47蛋白; 生物素标记的人CD47; not shown: His tag", "T2 sequence (Q08722 19-139 limits assumed)": "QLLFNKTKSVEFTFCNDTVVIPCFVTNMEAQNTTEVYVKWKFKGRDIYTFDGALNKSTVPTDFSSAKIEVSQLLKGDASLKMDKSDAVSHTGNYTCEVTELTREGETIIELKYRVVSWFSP", "assay": "SPR (Biacore T200), antibody captured on goat anti-mouse IgG, CD47-his in flow"}}, "data": [{"binder": "B1", "values": [{"measurement": "binding result", "setting": "[1]", "value": "binds"}, {"measurement": "binding result", "setting": "[2]", "value": "binds"}]}]}
